This note sets out measurements from the RNAGym collection of RNA variant scans (doi:10.7554/elife.80360).

The chains are these.
B1: Hairpin Ribozyme (parent)
chain: GUCCUCUUUCACGUGCGCGUGAAAGAGAGAAGUGAACCAGAGAAACACACGUUGUGGUAUAUUACCUGGUA

In the data set the parent is B1. The data set can be described thus: self-cleavage, relative activity (ratio to wild type); higher = more cleavage; co-transcriptional.
As to G34A A49C, the self-cleavage worked out at 0.12.

G34A A49G: the self-cleavage came out at 0.754.

On to G34U C48U, for which the self-cleavage was 0.695.

Turning to G34C A35G, the self-cleavage came to 1.4.

For G34C A35C, the self-cleavage was determined as 1.25.

G34C U70C: the self-cleavage is 1.42.

With G32C U53A, the self-cleavage was found to be 0.185.

Turning to G32C U53G, the self-cleavage turned out to be 0.0828.

For the variant G34U G57A, the self-cleavage came to 0.887.

In the case of G34U G57C, the self-cleavage was found to be 0.552.

For G34U G51U, the self-cleavage was determined as 1.04.

For G34U A61C, the self-cleavage turned out to be 1.2.

As for G34U A61G, the self-cleavage was found to be 0.636.

As to G34U G69A, the self-cleavage turned out to be 0.93.

G32U G68C: the self-cleavage amounted to 0.0784.

On to G32A A41U, for which the self-cleavage is 0.396.

With U33A A44U, the self-cleavage came out at 0.141.

As for U33C A44G, the self-cleavage came to 0.0547.

For U33C A44U, the self-cleavage came out at 0.195.

As for U33G U62G, the self-cleavage turned out to be 0.0966.

Consider U33G U62A, for which the self-cleavage was 0.126.

Take G34U G56C: the self-cleavage was 0.409.

For the variant U33C G69U, the self-cleavage was 0.0808.

For G34C A45G, the self-cleavage is 0.368.

Regarding G32C U58C, the self-cleavage came to 0.0937.

On to G34A U55C, for which the self-cleavage is 0.487.

For G34A U52A, the self-cleavage came to 1.31.

U33A G42U: the self-cleavage is 0.181.

With U33A G42A, the self-cleavage stood at 0.168.

G32U A36C: the self-cleavage was 0.1.

As for G34U C37U, the self-cleavage was 1.59.

Regarding U33C A47G, the self-cleavage turned out to be 0.219.

Turning to G34A C65G, the self-cleavage came to 0.477.

G32A A44U: the self-cleavage is 0.152.

With G32A A44G, the self-cleavage is 0.143.

For the variant G32A A44C, the self-cleavage stood at 0.0922.

Regarding U33G G57C, the self-cleavage turned out to be 0.108.

In the case of U33G G57A, the self-cleavage was found to be 0.115.

For G32U U33G, the self-cleavage came to 0.0653.

For G34C U52G, the self-cleavage is 0.379.

With G34C U63A, the self-cleavage worked out at 0.293.

For the variant G34C U63G, the self-cleavage is 0.262.

As for G32A A47C, the self-cleavage amounted to 0.143.

For G32A C65G, the self-cleavage stood at 0.102.

In the case of G32A C65A, the self-cleavage was found to be 0.0853.

Turning to G32U A43G, the self-cleavage is 0.0636.

Consider G32U A43C, for which the self-cleavage turned out to be 0.0806.

As for G32C A71C, the self-cleavage amounted to 0.215.

As to G32C A71G, the self-cleavage was 0.238.

In the case of G32C A71U, the self-cleavage amounted to 0.157.

Turning to G34C A64U, the self-cleavage is 0.442.

Regarding G34C A64G, the self-cleavage stood at 0.792.

For G32U A61G, the self-cleavage was determined as 0.0951.

In the case of G32A C48A, the self-cleavage came out at 0.128.

Regarding G34C C66A, the self-cleavage came to 0.693.

U33C C38U: the self-cleavage was 0.0575.

As for G32A U33C, the self-cleavage was 0.119.

On to G34A A71C, for which the self-cleavage is 1.6.

As to G32U U67C, the self-cleavage was found to be 0.0935.

For the variant G34U A71G, the self-cleavage came to 1.58.

Consider G34U A71U, for which the self-cleavage was 1.36.

On to U33C C48U, for which the self-cleavage came to 0.118.

Regarding U33G C48G, the self-cleavage is 0.209.

On to U33G C48U, for which the self-cleavage was 0.112.

With U33A U55A, the self-cleavage was determined as 0.0922.

Turning to G34C G40U, the self-cleavage amounted to 0.541.

Take G34A A45C: the self-cleavage was 0.202.

Regarding G32C U67C, the self-cleavage came out at 0.105.

In the case of G34C G51A, the self-cleavage was determined as 1.61.

As to G34U A64G, the self-cleavage was 1.17.

As for G34U A64C, the self-cleavage was 0.376.

Regarding U33A G56A, the self-cleavage was found to be 0.239.

Regarding U33A G56U, the self-cleavage is 0.156.

Take U33A A35C: the self-cleavage is 0.0785.

On to U33C A35U, for which the self-cleavage is 0.162.

Consider G32C G68U, for which the self-cleavage was 0.135.

Take G32C G68C: the self-cleavage is 0.112.

G32A C38G: the self-cleavage came out at 0.1.

For G32C U33C, the self-cleavage was determined as 0.0618.

Turning to G32C U33G, the self-cleavage worked out at 0.12.

G34C A61C: the self-cleavage amounted to 0.733.

As for U33G U70C, the self-cleavage came to 0.101.

With G32A A59U, the self-cleavage came out at 0.167.

For the variant G32A U53A, the self-cleavage came to 0.0993.

Consider U33A A36U, for which the self-cleavage amounted to 0.0862.

With G34C G42U, the self-cleavage was determined as 1.19.

G32U A45C: the self-cleavage came out at 0.153.

As to U33G A43G, the self-cleavage stood at 0.282.

Consider G32U U70C, for which the self-cleavage stood at 0.138.

G32U U70G: the self-cleavage was 0.108.

Consider G34C C48G, for which the self-cleavage worked out at 0.16.

On to U33G C46A, for which the self-cleavage was determined as 0.0768.

For U33G C46U, the self-cleavage is 0.16.

As to G34U G54A, the self-cleavage was 1.3.

As to G32U A49U, the self-cleavage came to 0.0712.

As for G32C G34C, the self-cleavage worked out at 0.101.

As for U33G G54U, the self-cleavage came out at 0.0691.

As to U33G G54C, the self-cleavage came to 0.145.

As for U33G G54A, the self-cleavage came out at 0.111.

Take G32U G34U: the self-cleavage worked out at 0.126.

In the case of G34U A47C, the self-cleavage came to 1.2.

On to G32U C38A, for which the self-cleavage turned out to be 0.0741.

Turning to U33C C37A, the self-cleavage amounted to 0.182.

Consider U33C C37U, for which the self-cleavage is 0.0997.

Consider G32U U53A, for which the self-cleavage was found to be 0.126.

Turning to G34A A64U, the self-cleavage was found to be 0.125.

Take U33A G34C: the self-cleavage was 0.777.

With U33A G34A, the self-cleavage is 0.0987.

Regarding U33A A61U, the self-cleavage came to 0.167.

U33A A61G: the self-cleavage was found to be 0.0674.

On to G32C A64U, for which the self-cleavage is 0.159.

In the case of G32C A64G, the self-cleavage turned out to be 0.0936.

In the case of G32C A64C, the self-cleavage turned out to be 0.183.

G32C C46U: the self-cleavage was determined as 0.109.

On to U33G G34C, for which the self-cleavage came to 0.337.

In the case of U33G C65G, the self-cleavage stood at 0.122.

Turning to G32A G69C, the self-cleavage was determined as 0.163.

In the case of G32A U70C, the self-cleavage is 0.0825.

Turning to U33C A49G, the self-cleavage was found to be 0.123.

On to G34A A41U, for which the self-cleavage is 1.23.

Take G34A U60G: the self-cleavage turned out to be 1.

As to G32A A49C, the self-cleavage is 0.0198.

Regarding G32A A49U, the self-cleavage was determined as 0.0556.

As to U33C U67G, the self-cleavage was found to be 0.21.

U33C U70G: the self-cleavage turned out to be 0.147.

Regarding U33C U70C, the self-cleavage turned out to be 0.0962.

As for U33G C50G, the self-cleavage turned out to be 0.12.

With G32U C48A, the self-cleavage turned out to be 0.0918.

Consider G32U C48U, for which the self-cleavage stood at 0.15.

As for U33G G42C, the self-cleavage is 0.166.

On to G34C A43G, for which the self-cleavage was 0.0982.

On to G34U A35G, for which the self-cleavage was found to be 1.47.

Consider G34U A35C, for which the self-cleavage worked out at 1.2.

Turning to G32A A64C, the self-cleavage came out at 0.14.

In the case of U33C A45G, the self-cleavage worked out at 0.227.

With U33A C65U, the self-cleavage was 0.238.

Consider U33G U53C, for which the self-cleavage came out at 0.204.

For the variant U33G U53G, the self-cleavage was 0.211.

As to G32U G40A, the self-cleavage came to 0.122.

As for G34A A43G, the self-cleavage turned out to be 0.0724.

Regarding G32C C50U, the self-cleavage is 0.0935.

Consider U33A G40C, for which the self-cleavage came out at 0.0171.

As to U33A U58A, the self-cleavage was 0.0766.

Regarding U33A U58G, the self-cleavage came out at 0.135.

Take G32C C37G: the self-cleavage worked out at 0.15.

In the case of G32A C46G, the self-cleavage was 0.103.

As for G32A C46U, the self-cleavage worked out at 0.148.

Take U33C A36G: the self-cleavage stood at 0.0993.

In the case of G32A U60A, the self-cleavage worked out at 0.191.

On to G34A C37U, for which the self-cleavage is 0.915.

In the case of U33G A39C, the self-cleavage was 0.149.

Regarding G34C C37G, the self-cleavage is 0.781.

As to G34C C37A, the self-cleavage is 0.898.

With U33G A61U, the self-cleavage came out at 0.0863.

Regarding U33G A61G, the self-cleavage worked out at 0.229.

Regarding U33G U63G, the self-cleavage is 0.198.

Turning to U33C C66U, the self-cleavage worked out at 0.149.

As to G32C G56C, the self-cleavage amounted to 0.149.

As to G32C G56A, the self-cleavage stood at 0.13.

As for G32C A35C, the self-cleavage was 0.

For the variant G34A C48U, the self-cleavage came out at 0.191.

As to U33G G40C, the self-cleavage worked out at 0.0649.

For U33G G40U, the self-cleavage stood at 0.0849.

Regarding U33G G40A, the self-cleavage turned out to be 0.245.

For the variant G34A U70C, the self-cleavage was 1.05.

As for U33C G51C, the self-cleavage amounted to 0.0825.

For U33A C38U, the self-cleavage amounted to 0.0932.
